Test results as given in patent US20170360931A1 (UNIVERSITY OF CHICAGO, published 2017).

What was measured:
Test in all cases: cell-based or functional assay
[1] = target: HA of A/California/04/2009 (H1N1) virus (influenza A virus A/California/04/2009 …)
[2] = target: HA of A/chicken/Jalisco/12283/12 (H7N3) virus (influenza A virus …)
[3] = target: HA of wild type A/Shanghai/1/2013 (H7N9) virus (influenza A virus A/Shanghai/1/2013 …)

B1: 045-051310-2B06 (antibody, V domains shown)
VH: QVQLVQSGPEMKKPGASVKVSCKTSGYRFTRYGISWVRQAPGRGLEWLGWISAYSGDTYYGQKFQDRVTMTTDRATSTAYMELRNLGSDDSAVYFCARDHVQGEVSIYYYAMDVWGEGTTVTVSS
VL: EIVLTQSPATLSLSPGERVTLSCRASESVGNKLAWFQQRPGQAPRLLIYNASNRATDIPARFSGSGSGTDFTLTISSLQPEDFAVYYCQQRGTWPRGLITFGQGTRLEIK
With B1 the “PRNT50 (plaque reduction assay)” value [1] was 5.5 µg/mL, the “PRNT50 (plaque reduction assay)” value [2] was 18 µg/mL and the “PRNT50 (plaque reduction assay)” value [3] was 19 µg/mL.
